Measurements from patent US20260345804 (published 2026).
Changes are numbered by the printed parent chain.

T1: human IL2v G4S avi his (P1AG0879) (human)
T1 chain: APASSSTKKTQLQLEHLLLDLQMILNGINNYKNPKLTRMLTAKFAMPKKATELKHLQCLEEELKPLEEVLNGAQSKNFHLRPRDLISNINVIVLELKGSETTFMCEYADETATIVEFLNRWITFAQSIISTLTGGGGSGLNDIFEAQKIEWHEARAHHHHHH

B1: P1AI1649 PD1-376_VL2_VH4_I58T (antibody, V domains shown)
VH: EVQLLESGGGLVQPGGSLRLSCAASGFSFSSYTMSWVRQAPGKGLEWVSAISGGGRDTYYPDSVKGRFTISRDNSKNTLYLQMNSLRAEDTAVYYCVLLTGRVYFALDSWGQGTLVTVSS
VL: DIVMTQSPDSLAVSLGERATINCKASESVDTSDNSFIHWYQQKPGQSPKLLIYRASTLESGVPDRFSGSGSGTDFTLTISSLQAEDVAVYYCQQNYDVPWTFGQGTKVEIKR
B2: P1AI1650 PD1-376_VL2_VH4_I58T_P61A (antibody, V domains shown)
VH: B1 VH with P61A
VL: B1 VL
B3: P1AH4157 PD1-376_VL2_VH4 (antibody, V domains shown)
VH: B1 VH with T58I
VL: B1 VL
B4: P1AI1648 PD1-376_VL2_VH4_I58L_D62E (antibody, V domains shown)
VH: B1 VH with T58L, D62E
VL: B1 VL
B5: P1AI1652 PD1-376_VL2_VH4_Y60F_D62E (antibody, V domains shown)
VH: B1 VH with T58I, Y60F, D62E
VL: B1 VL
B6: P1AI1651 PD1-376_VL2_VH4_P61A (antibody, V domains shown)
VH: B1 VH with T58I, P61A
VL: B1 VL
B7: P1AG9606 PD1 IgG-IL2v aIL2 MT204 scFv-PQARK (antibody)
chain 1: EVQLLESGGGLVQPGGSLRLSCAASGFSFSSYTMSWVRQAPGKGLEWVATISGGGRDIYYPDSVKGRFTISRDNSKNTLYLQMNSLRAEDTAVYYCVLLTGRVYFALDSWGQGTLVTVSSASTKGPSVFPLAPSSKSTSGGTAALGCLVKDYFPEPVTVSWNSGALTSGVHTFPAVLQSSGLYSLSSVVTVPSSSLGTQTYICNVNHKPSNTKVDKKVEPKSCDKTHTCPPCPAPEAAGGPSVFLFPPKPKDTLMISRTPEVTCVVVDVSHEDPEVKFNWYVDGVEVHNAKTKPREEQYNSTYRVVSVLTVLHQDWLNGKEYKCKVSNKALGAPIEKTISKAKGQPREPQVCTLPPSRDELTKNQVSLSCAVKGFYPSDIAVEWESNGQPENNYKTTPPVLDSDGSFFLVSKLTVDKSRWQQGNVFSCSVMHEALHNHYTQKSLSLSPG
chain 2: DIVMTQSPDSLAVSLGERATINCKASESVDTSDNSFIHWYQQKPGQSPKLLIYRSSTLESGVPDRFSGSGSGTDFTLTISSLQAEDVAVYYCQQNYDVPWTFGQGTKVEIKRTVAAPSVFIFPPSDEQLKSGTASVVCLLNNFYPREAKVQWKVDNALQSGNSQESVTEQDSKDSTYSLSSTLTLSKADYEKHKVYACEVTHQGLSSPVTKSFNRGEC
modifications: PD1-binding arm; immunoconjugate, knob chain SEQ59 carries masked IL2v
B8: P1AH4161 PD1-376_VL2_VH1_2_3_4 (antibody, V domains shown)
VH: B1 VH with L5V, S28T, T33A, T58I
VL: B1 VL
B9: P1AH4158 PD1-376_VL7_VH4 (antibody, V domains shown)
VH: B1 VH with T58I
VL: B1 VL with A55E, L58Q
B10: P1AH4159 PD1-376_VL2_7_VH4 (antibody, V domains shown)
VH: B1 VH with T58I
VL: B1 VL with L58Q
B11: P1AH4160 PD1-376_VL7_VH1_2_4 (antibody, V domains shown)
VH: B1 VH with L5V, S28T, T58I
VL: B1 VL with A55E, L58Q
B12: P1AA6888 one-shot humanized PD1-0103 (antibody)
chain 1: not shown
chain 2: B7 chain 2
B13: P1AF7506 OA MT204 IgG PG LALA (antibody, V domains shown)
VH: EVQLVESGGGLVQPGGSLRLSCAASGFTFSSYTLAWVRQAPGKGLEWVAAIDSSSYTYSPDTVRGRFTISRDNAKNSLYLQMNSLRAEDTAVYYCARDSNWDALDYWGQGTTVTVSS
VL: DIQMTQSPSSLSASVGDRVTITCKASQNVGTNVGWYQQKPGKAPKALIYSASFRYSGVPSRFSGSGSGTDFTLTISSLQPEDFATYYCQQYYTYPYTFGGGTKVEIKR
B14: P1AH2051 MT204_VL1a-combo VH2 & VH6 IgG PG LALA (antibody, V domains shown)
VH: B13 VH with R64K, A74S, S77T
VL: B13 VL with K24R, N28G, R54L
B15: P1AH2050 MT204_VL1-combo VH2 & VH6 IgG PG LALA (antibody, V domains shown)
VH: B13 VH with R64K, A74S, S77T
VL: B13 VL with K24R, N28G
B16: P1AH2052 MT204_VL1b-combo VH2 & VH6 IgG PG LALA (antibody, V domains shown)
VH: B13 VH with R64K, A74S, S77T
VL: B13 VL with K24R, N28G, A46L, R54L
B17: P1AI0357 PD1-1030-VH_I58T (antibody, V domains shown)
VH: B1 VH with S49A, A50T
VL: B1 VL with A55S
B18: P1AI0360 PD1-1030-VH_Y60F_D62E (antibody, V domains shown)
VH: B1 VH with S49A, A50T, T58I, Y60F, D62E
VL: B1 VL with A55S
B19: P1AI0358 PD1-1030-VH_I58T_P61A (antibody, V domains shown)
VH: B1 VH with S49A, A50T, P61A
VL: B1 VL with A55S
B20: P1AI0356 PD1-1030-VH_I58L_D62E (antibody, V domains shown)
VH: B1 VH with S49A, A50T, T58L, D62E
VL: B1 VL with A55S
B21: P1AI0359 PD1-1030-VH_P61A (antibody, V domains shown)
VH: B1 VH with S49A, A50T, T58I, P61A
VL: B1 VL with A55S

Target: huPD1-ECD_Fc-knob/hole (P1AD9704) (human)
Assay: SPR, 25C

Kd [nM]	Binder
0.111	B1
0.127	B2
0.126	B3
0.144	B4
0.162	B5
0.114	B6
0.19	B7

Target: huPD1-ECD_Fc-knob/hole (P1AD9704) (human)
Assay: SPR, 25C
Remark: another data set of the same source

Kd [nM]	Binder
0.2	B3
0.4	B8
1.5	B9
0.2	B10
1.2	B11
0.2	B12

Target: T1, human IL2v G4S avi his (P1AG0879)
Assay: SPR, 25C

Kd [nM]	Binder
0.27	B13
0.101	B14
0.427	B15
0.995	B16

Target: huPD1-ECD_Fc-knob/hole (P1AD9704) (human)
Assay: SPR, 25C
Remark: another data set of the same source

Kd [nM]	Binder
0.2	B17
0.3	B18
0.3	B19
0.2	B20
0.2	B21
0.3	B12
